This passage reports stoichiometry N results from PMC3922039.

The target of the assay is Mboumar-9 transposase (T216A) (Messor bouvieri). Put plainly: SEC; analytical size-exclusion chromatography of DNA-free transposase on Superdex 200 at 4 °C; 5.7 uM in 50 uL of 20 mM PIPES pH 6.8, 500 mM NaCl, 5 mM MgCl2, 1 mM DTT; flow 0.5 mL/min.

Usually stoichiometry N stands for the number of molecules, sites or subunits per partner or assembly. Mboumar-9 transposase (T216A) (enzyme) registered a stoichiometry N of 2.
